The source of these data is patent US20170101476A1 (Novartis, published 2017).

What all share (assay): cell-based or functional assay
The target in test [1] is T1, Human CXCR2 (human, UniProt P25025 1-360).
T1 sequence: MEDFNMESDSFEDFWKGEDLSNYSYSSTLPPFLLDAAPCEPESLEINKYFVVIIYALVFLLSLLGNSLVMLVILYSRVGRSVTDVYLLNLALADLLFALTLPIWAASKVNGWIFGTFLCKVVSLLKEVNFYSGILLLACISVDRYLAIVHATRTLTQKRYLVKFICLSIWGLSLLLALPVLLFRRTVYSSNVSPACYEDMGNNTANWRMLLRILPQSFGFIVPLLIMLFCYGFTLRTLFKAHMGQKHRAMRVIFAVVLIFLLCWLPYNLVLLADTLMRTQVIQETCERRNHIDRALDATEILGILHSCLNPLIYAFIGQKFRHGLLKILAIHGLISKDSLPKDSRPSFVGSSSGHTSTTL

A further test has as its target T2, Cynomolgus CXCR2 (cynomolgus, UniProt Q28519 3-353 (rhesus entry)).
T2 chain: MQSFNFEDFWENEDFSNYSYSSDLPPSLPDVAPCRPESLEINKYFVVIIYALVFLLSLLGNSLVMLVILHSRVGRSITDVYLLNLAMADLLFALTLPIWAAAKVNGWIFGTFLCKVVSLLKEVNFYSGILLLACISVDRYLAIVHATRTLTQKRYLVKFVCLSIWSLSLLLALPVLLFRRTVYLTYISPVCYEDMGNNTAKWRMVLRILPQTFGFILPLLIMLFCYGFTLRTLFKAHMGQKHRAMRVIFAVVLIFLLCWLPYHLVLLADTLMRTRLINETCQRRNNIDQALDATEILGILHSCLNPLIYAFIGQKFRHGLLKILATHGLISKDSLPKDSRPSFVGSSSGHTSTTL

The target of test [2] is T1, Human CXCR2. This is another data set of the same source.

B1: CXCR20017 (other, not shown: small tags and cut ends)
chain: EVQLVESGGGLVQPGGSLRLSCVASGSIVRINTMGWYRQTPGKQRELVADITSGGNINYIDAVKGRFTISRDNTKNTVYLQMNSLKPEDTAVYYCNAEIVVLVGVWTQRARTGNYWGQGTQVTVSSGGGGSGGGGSGGGGSGGGGSGGGGSGGGGSGGGGSEVQLVESGGGLVQPGGSVRLSCVASGIIFRLSALGWTRQGPGKAREWVAGINSDGTTNYADPVKGRFTISRDNAKNTIYLHMDMLKPEDTAVYYCASGKYRGQGTQVTVSS
Take B1: the “FLIPR IC50, GRO-α induced intracellular calcium release” value with Human CXCR2 [1] was 22.9 nM; with Cynomolgus CXCR2 it was 1080 nM.

B2: CXCR20016 (other, not shown: small tags and cut ends)
chain: EVQLVESGGGLVQPGGSVRLSCVASGIIFRLSALGWTRQGPGKAREWVAGINSDGTTNYADPVKGRFTISRDNAKNTIYLHMDMLKPEDTAVYYCASGKYRGQGTQVTVSSGGGGSGGGGSGGGGSGGGGSGGGGSGGGGSGGGGSEVQLVESGGELVQPGGSLRLSCAASGSILTINAMGWYRQAPGKQRELVVRRTRGGSTTYQDSVKGRFTISADIAKKTMYLQMNSLKPEDTAVYYCMLDDRGGVYWGQGTQVTVSS
Take B2: the “FLIPR IC50, GRO-α induced intracellular calcium release” value in the test with Human CXCR2 [1] stood at 2.36 nM; in the test with Cynomolgus CXCR2, 1100 nM.

B3: CXCR20015 (other, not shown: small tags and cut ends)
chain: EVQLVESGGELVQPGGSLRLSCAASGSILTINAMGWYRQAPGKQRELVVRRTRGGSTTYQDSVKGRFTISADIAKKTMYLQMNSLKPEDTAVYYCMLDDRGGVYWGQGTQVTVSSGGGGSGGGGSGGGGSGGGGSGGGGSGGGGSGGGGSEVQLVESGGGLVQPGGSVRLSCVASGIIFRLSALGWTRQGPGKAREWVAGINSDGTTNYADPVKGRFTISRDNAKNTIYLHMDMLKPEDTAVYYCASGKYRGQGTQVTVSS
Regarding B3, the “FLIPR IC50, GRO-α induced intracellular calcium release” value is 2.78 nM with Human CXCR2 [1] and 2870 nM in the test with Cynomolgus CXCR2.

B4: CXCR20011 (VHH, not shown: small tags and cut ends)
chain: EVQLVESGGGLVQPGGSLRLSCVASGSIVRINTMGWYRQTPGKQRELVADITSGGNINYIDAVKGRFTISRDNTKNTVYLQMNSLKPEDTAVYYCNAEIVVLVGVWTQRARTGNYWGQGTQVTVSSGGGGSGGGGSGGGGSGGGGSGGGGSGGGGSGGGGSEVQLVESGGGLVQPGGSLRLSCVASGSIVRINTMGWYRQTPGKQRELVADITSGGNINYIDAVKGRFTISRDNTKNTVYLQMNSLKPEDTAVYYCNAEIVVLVGVWTQRARTGNYWGQGTQVTVSS
On to B4, for which the “FLIPR IC50, GRO-α induced intracellular calcium release” value with Human CXCR2 [1] was found to be 137 nM.

B5: CXCR20013 (bispecific antibody, not shown: small tags and cut ends)
chain: EVQLVESGGELVQPGGSLRLSCAASGSILTINAMGWYRQAPGKQRELVVRRTRGGSTTYQDSVKGRFTISADIAKKTMYLQMNSLKPEDTAVYYCMLDDRGGVYWGQGTQVTVSSGGGGSGGGGSGGGGSGGGGSGGGGSGGGGSGGGGSEVQLVESGGGLVQPGGSLRLSCVASGSIVRINTMGWYRQTPGKQRELVADITSGGNINYIDAVKGRFTISRDNTKNTVYLQMNSLKPEDTAVYYCNAEIVVLVGVWTQRARTGNYWGQGTQVTVSS
Consider B5, for which the “FLIPR IC50, GRO-α induced intracellular calcium release” value worked out at 2.93 nM with Human CXCR2 [1] and 29.2 nM with Cynomolgus CXCR2.

B6: CXCR20024 (VHH, not shown: small tags and cut ends)
chain: EVQLVESGGGLVQPGGSLRLSCVASGRIFSSNAMGWFRQAPGKEREFVAAITWRSGGSAYYADSAKGRFTISRDNAKNTVYLQMNSLKPEDTAVYYCAAGGSSWLSFPPDYWGQGTQVTVSSGGGGSGGGGSGGGGSGGGGSGGGGSGGGGSGGGGSEVQLVESGGGLVQPGGSLRLSCVASGRIFSSNAMGWFRQAPGKEREFVAAITWRSGGSAYYADSAKGRFTISRDNAKNTVYLQMNSLKPEDTAVYYCAAGGSSWLSFPPDYWGQGTQVTVSS
With B6, in the test with Human CXCR2 [1], the “FLIPR IC50, GRO-α induced intracellular calcium release” value was 26.4 nM. In addition, the “FLIPR IC50, GRO-α induced intracellular calcium release” value in the test with Cynomolgus CXCR2 stood at 11.8 nM. For the same molecule, in the test with Human CXCR2 [2], the “[35S]GTPγS % inhibition of max, GRO-α” value came to 100% and the “[35S]GTPγS accumulation IC50, GRO-α” value turned out to be 30.3 nM.

B7: CXCR20025 (bispecific antibody, not shown: small tags and cut ends)
chain: EVQLVESGGGLVQAGGSLRLSCAASGRTFSDYAMGWFRQAPGKEREFVAAITWNGGRVFYTASVKGRFTISRDNAKNTMYLQMNSLKPEDTAVYYCAADKDRRTDYLGHPVAYWGQGTQVTVSSGGGGSGGGGSGGGGSGGGGSGGGGSGGGGSGGGGSEVQLVESGGGLVQAGESLRLSCAASGSTFDFKVMGWYRQPPGKQREGVAAIRLSGNMHYAESVKGRFTISKANAKNTVYLQMNSLRPEDTAVYYCKVNIRGQDYWGQGTQVTVSS
On to B7, for which the “FLIPR IC50, GRO-α induced intracellular calcium release” value in the test with Human CXCR2 [1] stood at 12.2 nM; with Cynomolgus CXCR2, 7.88 nM. In the test with Human CXCR2 [2], the “[35S]GTPγS % inhibition of max, GRO-α” value is 100%. The “[35S]GTPγS accumulation IC50, GRO-α” value in the test with Human CXCR2 [2] turned out to be 0.891 nM.

B8: CXCR20031 (bispecific antibody, not shown: small tags and cut ends)
chain: EVQLVESGGELVQPGGSLRLSCAASGSILTINAMGWYRQAPGKQRELVVRRTRGGSTTYQDSVKGRFTISADIAKKTMYLQMNSLKPEDTAVYYCMLDDRGGVYWGQGTQVTVSSGGGGSGGGGSGGGGSGGGGSGGGGSGGGGSGGGGSEVQLVESGGGLVQPGGSLRLSCVASGRIFSSNAMGWFRQAPGKEREFVAAITWRSGGSAYYADSAKGRFTISRDNAKNTVYLQMNSLKPEDTAVYYCAAGGSSWLSFPPDYWGQGTQVTVSS
Turning to B8, the “FLIPR IC50, GRO-α induced intracellular calcium release” value with Human CXCR2 [1] amounted to 15.2 nM. In the test with Cynomolgus CXCR2, the “FLIPR IC50, GRO-α induced intracellular calcium release” value came out at 4.26 nM. Moreover, in the test with Human CXCR2 [2], the “[35S]GTPγS % inhibition of max, ENA-78” value amounted to 100%; the “[35S]GTPγS % inhibition of max, IL-8” value was found to be 100%; the “[35S]GTPγS accumulation IC50, ENA-78” value is 1.38 nM; the “[35S]GTPγS accumulation IC50, IL-8” value is 0.84 nM.

B9: CXCR20027 (bispecific antibody, not shown: small tags and cut ends)
chain: EVQLVESGGGLVQPGGSLRLSCVASGRIFSSNAMGWFRQAPGKEREFVAAITWRSGGSAYYADSAKGRFTISRDNAKNTVYLQMNSLKPEDTAVYYCAAGGSSWLSFPPDYWGQGTQVTVSSGGGGSGGGGSGGGGSGGGGSGGGGSGGGGSGGGGSEVQLVESGGGLVQAGGSLRLSCAASGRTFSDYAMGWFRQAPGKEREFVAAITWNGGRVFYTASVKGRFTISRDNAKNTMYLQMNSLKPEDTAVYYCAADKDRRTDYLGHPVAYWGQGTQVTVSS
For B9, the “FLIPR IC50, GRO-α induced intracellular calcium release” value worked out at 17.8 nM with Human CXCR2 [1] and 12.7 nM with Cynomolgus CXCR2.

B10: CXCR20029 (other, not shown: small tags and cut ends)
chain: EVQLVESGGGLVQPGGSLRLSCVASGRIFSSNAMGWFRQAPGKEREFVAAITWRSGGSAYYADSAKGRFTISRDNAKNTVYLQMNSLKPEDTAVYYCAAGGSSWLSFPPDYWGQGTQVTVSSGGGGSGGGGSGGGGSGGGGSGGGGSGGGGSGGGGSEVQLVESGGGLVQAGGSLTLSCAVSGSTFRINTMGWYRRAPGKQRELVAARDRGGYINYVDSVKGRFTVSRDNAKPTMYLQMNSLKPEDTAVYYCHAGTQDRTGRNFDRWGQGTQVTVSS
B10: the entries for the “FLIPR IC50, GRO-α induced intracellular calcium release” value with Human CXCR2 [1] and in the test with Cynomolgus CXCR2 were 17.1 nM and 10.1 nM, respectively.

B11: CXCR20036 (other, not shown: small tags and cut ends)
chain: EVQLVESGGGLVQAGGSLTLSCAVSGSTFRINTMGWYRRAPGKQRELVAARDRGGYINYVDSVKGRFTVSRDNAKPTMYLQMNSLKPEDTAVYYCHAGTQDRTGRNFDRWGQGTQVTVSSGGGGSGGGGSGGGGSGGGGSGGGGSGGGGSGGGGSEVQLVESGGGLVQAGGSLRLSCAASGRTFSDYAMGWFRQAPGKEREFVAAITWNGGRVFYTASVKGRFTISRDNAKNTMYLQMNSLKPEDTAVYYCAADKDRRTDYLGHPVAYWGQGTQVTVSS
In the case of B11, the “FLIPR IC50, GRO-α induced intracellular calcium release” value was found to be 7.86 nM with Human CXCR2 [1] and 4.27 nM with Cynomolgus CXCR2.
